The series can be described thus: amyloid nucleation score (Sup35N fusion, yeast selection) (log enrichment); library NNK1; higher = more nucleation; inactive = no reads after selection. The method in brief: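 Sup35N was fused to peptides of 20 random codons and expressed in psi-negative yeast, which were induced with 100 μM copper sulfate for 24 hours and then grown on medium lacking adenine and uracil for 7 days at 30°C. Plasmid inserts from input and output were sequenced on Illumina. The nucleation score is the DiMSum log enrichment of output over input reads, centred on the mode score of non-aggregating sequences. Sequences with under 100 input reads were left out, and random libraries had three technical output replicates.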

± gives the uncertainty stated by the source.

On to AFLTQTSHSQTT, for which the amyloid nucleation score amounted to 0.048 ± 0.74.

For the substance LPLHAESTGCYGLFSEHFSI, the amyloid nucleation score is -1.27 ± 1.2. With FVSRGLYGVLGTVSFLL, the amyloid nucleation score is -2.07 ± 1.6.

In the case of KAHRWDGRIFN, the amyloid nucleation score was -1.27 ± 0.55.

On to SRLVFGHTNRRNSIEQTELL, for which the amyloid nucleation score entry was “inactive”. The value for SSKMNILP was 0.51 ± 0.26.

Regarding KLAIYFILAACSRNVVED, the amyloid nucleation score worked out at 0.768 ± 0.36.

On to INGRTGILRRVGN, for which the amyloid nucleation score is -1.28 ± 0.75. The value for AILRHRSVNSGGELCGSKFP was 0.293 ± 1; that for MAVLGALNRSGNMGVGLFYN was -0.647 ± 0.4. The same measure for ATMCVTLIWCYSSKQRMYKK: 1.08 ± 0.15; for QVNFNRRFNTQAIFNLSGVP: 0.947 ± 0.71; for YPSIGLRVLLNYCDPTDTGA: 0.255 ± 1.2.

LVVDRGVNGCAFSWDTNDLS: the amyloid nucleation score is -0.52 ± 0.71.

Regarding LQWNRERGLTLLSWLRYKSI, the amyloid nucleation score was -0.505 ± 1.5. The value for RCNDAFTFTCRPGWMWKWGK was 1.75 ± 0.18.

For ILRNGRTYGAEVLQQLWNVL, the amyloid nucleation score was -0.418 ± 0.73. The same measure for LWERGKCHEACVVPAKKEGT: 0.039 ± 0.51; for MQRLLYACVHYRESAQVSTL: 1.93 ± 0.37. The same measure for LKQTPMLGDMGWGHRCLGKT: -0.262 ± 0.73; for WRIEACFSNFARTIFLVSGW: -0.399 ± 0.3. The same measure for RRYCKLLVWRQLTSYHGRQA: 0.527 ± 0.49; for RYYCFPTQLIHLTTT: -0.755 ± 0.55. As to GNAWCGLGSKKYCVWLYHYS, the amyloid nucleation score was found to be 0.214 ± 0.28. The value for FFCEIVMYGWSIM was 2.97 ± 0.14.

In the case of VNSNGTPCSMGIHMSGSYSP, the amyloid nucleation score turned out to be 0.226 ± 0.48. The same measure for CLMLAGRFIC: -0.422 ± 0.56; for WCKILYAKQERWP: 0.677 ± 0.44. The value for VRFGWVSSTPVVGVSQLCAH was -0.305 ± 1.1.

As to PGEVRW, the amyloid nucleation score was -0.385 ± 1.9. The value for SETYVLLKNPSDNIMQKWCV was 0.147 ± 0.79; that for LDRVWMYTIRLLQMKAMVLP was 0.497 ± 0.64. The same measure for FLCVF: 0.097 ± 0.88; for QCGEICLCRSAGVVHSPRGW: -0.513 ± 0.55; for LLASRPEG: -0.437 ± 0.35.

For YNMNFVSLVLGARRVYALSM, the amyloid nucleation score was 3.62 ± 0.12. The value for YFKEFWIWLW was “inactive”. For TYYNLYSVRGGCFAHDVLAC, the amyloid nucleation score was 0.234 ± 0.31. The substance NYCGLGSMYL registered an amyloid nucleation score of 1.1 ± 0.8. The value for PNSERREAMVIMFRW was 0.633 ± 0.35; that for KNLGTRGHSMY was -0.164 ± 0.31; that for CFLVGSWTPI was 0.215 ± 0.76. The value for IRVSFCWSNLHNNYNSGRAT was 5.02 ± 0.085; that for INMRKLPSRVSSFKVKCGHR was -0.42 ± 1.7. The substance GFSSMRYEGFGTGKCVDFLS registered an amyloid nucleation score of 0.281 ± 0.22. The same measure for GFRQVSCHHHWGGNSWMCR: 0.717 ± 0.19; for SGIGSMWSQLKDSV: 0.136 ± 0.59; for GCFRGPTGLCG: -0.271 ± 0.66. The value for SDRQVSSSRTYKHSTTSLGC was “inactive”; that for PSTDLWWLGNTLSIGNRIVY was -0.879 ± 0.69. The same measure for LFWASVSSWYDGEGVGKPDV: 0.134 ± 0.47; for RQDVT: 0.281 ± 0.61.

As to EGGRFKHRMNSCHYNSFGLH, the amyloid nucleation score was -0.255 ± 0.76. The same measure for EDGSQ: 0.532 ± 0.42; for LAFGFTSWS: 0.49 ± 0.38; for SGFGYSYCTLHCRTFWCLRP: 0.972 ± 0.3. The value for HWWYFCINP was “inactive”; that for PRGVFYCLCYLVTCLAEFYE was -0.311 ± 0.36; that for AQTWGESKTLPENLANYDAY was 0.241 ± 0.56. Take CVSHNVILRK: the amyloid nucleation score amounted to 2.4 ± 0.092.

For ALKHPML, the amyloid nucleation score was -0.815 ± 0.49. The same measure for GTCPSRPVSV: -0.139 ± 0.47; for FHASATRTFIVFCIC: 0.556 ± 0.38; for GCRPMSFKMSVAVGHLMGDT: 2.79 ± 0.2.

Substance HMFIFPYGAFMMERLFSGAI showed an amyloid nucleation score of 0.198 ± 0.97. The value for DYFSRKPGNCFWFAIARDNT was -0.398 ± 1.2; that for FGLIGTPCERMVSGLEV was -0.806 ± 0.88; that for APEFFNSDRASIAKF was -0.558 ± 0.77. For DSRCGPM, the amyloid nucleation score entry was “inactive”. The same measure for RMVGYVRGMAFRRSVSRRIG: 0.311 ± 0.68; for QGSCCD: -0.815 ± 0.86.

Turning to DWSIDILYSVIRSPVNLINS, the amyloid nucleation score was -1.01 ± 0.52. The substance CYGGWVYLLRIALCGEDSVI returned an amyloid nucleation score of 0.58 ± 0.58. The same measure for AGPDSSGAGGGSARFLFPEL: 0.184 ± 1.2; for WLVAHAPGH: 0.471 ± 0.62.

As for AYPLKTFIFYHGLMIWFNAM, the amyloid nucleation score stood at 0.827 ± 0.84. The same measure for PFVGTIFVSGSGTSMENGIC: -0.601 ± 0.47; for LWSFIGTGLITNMCISREFK: 0.743 ± 0.16; for AMRGYCRAFQIWVWICGLSL: 0.027 ± 0.86. The same measure for FFWEY: -0.312 ± 1.5; for WSLLCDCASGQCVMR: 0.005 ± 0.44. The same measure for NLSTSMSRREIMQQHQHRRL: 0.594 ± 0.64; for VCYCLKWEAMSVKLLCMGCA: -0.688 ± 0.6. As to CVKASLMMWVQFYIDSY, the amyloid nucleation score result is “inactive”. For HVLWGIVLVVIFFW, the amyloid nucleation score is -0.151 ± 0.29. The value for RDIRWITQEADGYLELRHSF was -0.085 ± 0.73; that for VLKPSLGGCLSHSVMLKLSD was “inactive”; that for VVLMLRDVEEFRQ was -0.38 ± 0.21.

With KSDNVVTRLRLLSAEVQW, the amyloid nucleation score is -0.295 ± 0.98.

With TQSGVIQDAACPAMGMSNVL, the amyloid nucleation score amounted to 0.289 ± 0.66.

LWIQMLAWCSRCM gave an amyloid nucleation score of 1.65 ± 0.32. The same measure for PRIRSPEMDVMSPPNFLWGL: 0.213 ± 0.48; for SVSRYDFEVGVMGHKCCITT: -0.359 ± 0.42.

Turning to IISVTVFFKCARLEILNR, the amyloid nucleation score was -0.64 ± 0.57.

As to NMTVITVVSWLCFVRRTHNA, the amyloid nucleation score was -1.06 ± 0.82.

SFNVNLGSHRDVMIVFSF had an amyloid nucleation score of 6.24 ± 0.064. The same measure for LVFVVMYGSRPSLKWWGITC: 0.473 ± 0.79; for PSYLCYVIPPPCINLVPMYP: -0.177 ± 0.23. SPHTI: the amyloid nucleation score turned out to be 4.92 ± 0.097. The value for HKFSNELLL was -0.145 ± 0.76. Consider QLPCDRISSDALYRMWGLV, for which the amyloid nucleation score is -1.41 ± 0.91. TYCNMVITRQRNA: the amyloid nucleation score stood at 0.685 ± 0.38. Substance ERVGAGVGSNERRD yielded an amyloid nucleation score of 0.646 ± 0.89. The value for GLRSESRKRGGGGGVAREVG was -0.053 ± 0.86.
